The target of this test is human neonatal Fc receptor (FcRn), His-tagged (human) (UniProt P55899). Nature of the test: BLI.

Values joined by “and” are separate entries in the source; they are usually repeats but may differ in a detail not shown here. Identical values can stand only once.

Chain of UniProt P55899 (P55899 24-297, chain 1 of 2): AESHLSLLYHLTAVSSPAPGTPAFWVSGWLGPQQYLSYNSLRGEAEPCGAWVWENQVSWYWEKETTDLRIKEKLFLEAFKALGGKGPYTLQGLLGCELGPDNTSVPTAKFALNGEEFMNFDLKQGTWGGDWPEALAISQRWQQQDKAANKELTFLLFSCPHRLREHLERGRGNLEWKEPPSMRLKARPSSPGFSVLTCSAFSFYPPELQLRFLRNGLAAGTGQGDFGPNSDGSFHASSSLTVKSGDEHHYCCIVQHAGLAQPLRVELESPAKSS
Chain of UniProt P55899 (P61769 21-119, chain 2 of 2, further chain): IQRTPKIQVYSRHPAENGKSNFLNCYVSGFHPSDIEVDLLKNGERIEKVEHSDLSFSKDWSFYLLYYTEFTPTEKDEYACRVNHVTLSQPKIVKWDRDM

Consider “RGB-19 tocilizumab (proposed biosimilar, IV and SC drug products) (antibody)”, for which the Kd was 26.5 to 30.4 nM and 26.3 to 31.7 nM.
For “RoActemra^® tocilizumab (EU-sourced reference medicinal product, IV and SC) (antibody)”, the Kd was 19.2 to 34.5 nM and 17.6 to 35.4 nM.

The Kd is the free concentration of one partner at which half of the binding sites on the other are occupied at equilibrium, for simple one-to-one binding.

The values above are taken from paper PMC12354568.
